The labels stand for the following.
B1: T2-WFR: human TREM2 mutant, amino acids 169-172 replaced with larger hydrophobic residues; SEQ ID NO: 47 (protein)
chain: MEPLRLLILLFVTELSGAHNTTVFQGVAGQSLQVSCPYDSMKHWGRRKAWCRQLGEKGPCQRVVSTHNLWLLSFLRRWNGSTAITDDTLGGTLTITLRNLQPHDAGLYQCQSLHGSEADTLRKVLVEVLADPLDHRDAGDLWFPGESESFEDAHVEHSISRSLLEGEIWFRWTSILLLLACIFLIKILAASALWAAAWHGQKPGTHPPSELDCGHDPGYQLQTLPGLRDT
B2: TRUNCIII-159-174: human TREM2 mutant, deletion of the 16 amino acids 159-174 proximal to the transmembrane domain; SEQ ID NO: 44 (protein)
chain: MEPLRLLILLFVTELSGAHNTTVFQGVAGQSLQVSCPYDSMKHWGRRKAWCRQLGEKGPCQRVVSTHNLWLLSFLRRWNGSTAITDDTLGGTLTITLRNLQPHDAGLYQCQSLHGSEADTLRKVLVEVLADPLDHRDAGDLWFPGESESFEDAHVEHSILLLLACIFLIKILAASALWAAAWHGQKPGTHPPSELDCGHDPGYQLQTLPGLRDT
B3: T2del11-16: human TREM2 6 amino acid deletion mutant of the stalk region; SEQ ID NO: 45 (protein)
chain: MEPLRLLILLFVTELSGAHNTTVFQGVAGQSLQVSCPYDSMKHWGRRKAWCRQLGEKGPCQRVVSTHNLWLLSFLRRWNGSTAITDDTLGGTLTITLRNLQPHDAGLYQCQSLHGSEADTLRKVLVEVLADPLDHRDAGDLWFPGESESFEDAHVEHSEGEIPFPPTSILLLLACIFLIKILAASALWAAAWHGQKPGTHPPSELDCGHDPGYQLQTLPGLRDT
B4: T2-YGG: human TREM2 mutant, amino acids 156-164 replaced with larger hydrophobic residues; SEQ ID NO: 46 (protein)
chain: MEPLRLLILLFVTELSGAHNTTVFQGVAGQSLQVSCPYDSMKHWGRRKAWCRQLGEKGPCQRVVSTHNLWLLSFLRRWNGSTAITDDTLGGTLTITLRNLQPHDAGLYQCQSLHGSEADTLRKVLVEVLADPLDHRDAGDLWFPGESESFEDAHVYGGWGGWGPEGEIPFPPTSILLLLACIFLIKILAASALWAAAWHGQKPGTHPPSELDCGHDPGYQLQTLPGLRDT

No end group written: not given here.

One assay has as its system HEK293-FT cells. The experiment in a line: FACS analysis of cell surface expression of TREM2 WT and mutants in HEK293-FT cells with or without PMA. The class given is cell-based. To be noted: co-transfected with hDAP12, 48 h, 30 min 50 ng/ml PMA, ratio of 1 = complete inhibition of shedding, FIG. 4B. The text has this:
FIGS. 4A-4D show the amino acid stretch in the membrane proximal part of the TREM2 stalk region are important for shedding. […] Amino acid numbering according to iProt Q9NZC2. TM: transmembrane region. Gaps indicate deleted amino acids within the respective mutant. Exchanged amino acids in bold. Underlined amino acids indicates main sheddase cleavage site for generation of the C-terminus of TREM2 ectodomain. […] FIG. 4B is a bar graph showing FACS analysis of TREM2 WT and mutants transiently expressed in HEK293-FT cells. Cells were treated 48 hours after transfection with 50 ng/ml PMA or 0.05% DMSO. Cells were detached, labelled with AF1828 antiserum and analyzed by flow cytometry. Data are plotted as the ratio of untreated over PMA treatment for each mutant as mean±S.E. (n=3). Statistical differences to WT were calculated by Anova with Dunnett's multiple comparison test. *P<0.01. TREM2-double mutant was stably expressed in BWZ-lacZ-mDAP12 cells. Cells were seeded on an activating monoclonal antibody or isotype control and reporter gene activity assessed after 16 h. Data are plotted as the ratio of RGA for activating/control Ab as mean±S.E. (n=3). FIG. 4D is a bar graph showing replacement of the three amino acids at the sheddase cleavage site strongly increases TREM2 cell surface expression. FACS analysis of TREM2 WT and mutants transiently expressed in HEK293-FT cells. Cells were treated 48 h after transfection with 50 ng/ml PMA or 0.05% DMSO. Cells were detached, labelled with AF1828 antiserum and analyzed by flow cytometry. Data are plotted as the ratio of untreated over PMA treatment for each mutant as mean±S.E. (n=3). Statistical differences were calculated by Anova with Dunnett's multiple comparison test. *P<0.01.
Human TREM2 mutants were generated using the QuikChange Site-directed Mutagenesis Kit (Stratagene) and confirmed by sequence analysis. Transfections of complementary DNA (cDNA) constructs were carried out in a 1:1 ratio of hDAP12 and TREM2 in HEK-FT cells using Lipofectamine LTX reagent (Thermofischer) according to the manufacturer's recommendations. 48 h after transfection cells were treated for 30 min with 50 ng/ml PMA or 0.05% DMSO and detached with a cell detachment solution Accutase (Sigma) and stained with goat anti human TREM2 antibody AF1828 (R&D Systems) or isotype control followed by incubation with the secondary Alexa Fluor 488 conjugated antibody (Molecular Probes). Acquisition was performed using a BD FACSCanto II (BD biosciences).
Wild-type (WT) TREM2 or TREM2 mutants were transfected together with hDAP12 into HEK-FT cells. 48 h later cells were treated for 30 min with PMA to activate ADAMs at cell surface (see Sommer, Nature Communications 7, 11523, 2016). TREM2 cell surface expression was assessed by FACS, and results are presented as expression ratio of untreated over PMA treatment (FIG. 4B). The evaluation of each construct in the presence and absence of PMA treatment overcomes the possibility that some constructs might display different binding properties for the antiserum and allows direct comparison of changes in TREM2 cell surface expression after activation of sheddases. A ratio of 1 indicates complete inhibition of shedding. […] Next four shorter deletion mutants were generated encompassing this area, each 6 amino acids long (TRUNC1, T2del3-8, T2del6-11 and T2del11-16).
“T2del6-11: human TREM2 6 amino acid deletion mutant of the stalk region; SEQ ID NO: 16 (LWFPGESESFEDAHVEHSISRSLFPPTSILLLLAC)”: the “PMA induced TREM2 shedding (TREM2 cell surface expression ratio of untreated over PMA treatment)” value is listed as “no or very little effect on shedding”.

On to “TRUNC1: human TREM2 6 amino acid deletion mutant of the stalk region; SEQ ID NO: 14 (LWFPGESESFEDAHVEHSISRSLLEGEIILLLLAC)”, for which the “PMA induced TREM2 shedding (TREM2 cell surface expression ratio of untreated over PMA treatment)” value is given as “no or very little effect on shedding”.

Take “T2del3-8: human TREM2 6 amino acid deletion mutant of the stalk region; SEQ ID NO: 15 (LWFPGESESFEDAHVEHSISRSLLEGTSILLLLAC)”: the “PMA induced TREM2 shedding (TREM2 cell surface expression ratio of untreated over PMA treatment)” value was “no or very little effect on shedding”.

In the case of B1, the “PMA induced TREM2 shedding (TREM2 cell surface expression ratio of untreated over PMA treatment)” value is reported as “more efficacious”.

Take B2: the “PMA induced TREM2 shedding (TREM2 cell surface expression ratio of untreated over PMA treatment)” value is recorded as “maximally reduces TREM2 shedding”.

B3: the “PMA induced TREM2 shedding (TREM2 cell surface expression ratio of untreated over PMA treatment)” value is “reduced PMA induced shedding”.

Turning to B4, the “PMA induced TREM2 shedding (TREM2 cell surface expression ratio of untreated over PMA treatment)” value is listed as “trend for reduction of TREM2 shedding”.

The target of another assay is ADAM17 (Homo sapiens, UniProt P78536). The assay can be described thus: In vitro cleavage of TREM2 stalk region peptides by ADAM17 (HPLC). The class given is biochemical. The note with it: neutral buffer, up to 48 hours, HPLC of parent peptide. The text has this: FIGS. 5A-5E show ADAM17 cleaves TREM2 stalk region peptides in vitro at H157-S158. […] All peptides were obtained with an N-terminal 7-methoxycoumarin (Mca) fluorescent tag […]. Underlined amino acids indicates main sheddase cleavage site. AA112-171: SEQ ID NO: 24; Peptide 1: SEQ ID NO: 25; Peptide 2: SEQ ID NO: 26; Peptide 3: SEQ ID NO: 27; Peptide la: SEQ ID NO: 28; Peptide 2a: SEQ ID NO: 29; Peptide 4: SEQ ID NO: 30; Peptide 5: SEQ ID NO: 31; Peptide 6: SEQ ID NO: 32. […] FIG. 5C discloses SEQ ID NOS 83, 51 and 84, respectively, in order of appearance.
Chain of ADAM17 (P78536 215-824): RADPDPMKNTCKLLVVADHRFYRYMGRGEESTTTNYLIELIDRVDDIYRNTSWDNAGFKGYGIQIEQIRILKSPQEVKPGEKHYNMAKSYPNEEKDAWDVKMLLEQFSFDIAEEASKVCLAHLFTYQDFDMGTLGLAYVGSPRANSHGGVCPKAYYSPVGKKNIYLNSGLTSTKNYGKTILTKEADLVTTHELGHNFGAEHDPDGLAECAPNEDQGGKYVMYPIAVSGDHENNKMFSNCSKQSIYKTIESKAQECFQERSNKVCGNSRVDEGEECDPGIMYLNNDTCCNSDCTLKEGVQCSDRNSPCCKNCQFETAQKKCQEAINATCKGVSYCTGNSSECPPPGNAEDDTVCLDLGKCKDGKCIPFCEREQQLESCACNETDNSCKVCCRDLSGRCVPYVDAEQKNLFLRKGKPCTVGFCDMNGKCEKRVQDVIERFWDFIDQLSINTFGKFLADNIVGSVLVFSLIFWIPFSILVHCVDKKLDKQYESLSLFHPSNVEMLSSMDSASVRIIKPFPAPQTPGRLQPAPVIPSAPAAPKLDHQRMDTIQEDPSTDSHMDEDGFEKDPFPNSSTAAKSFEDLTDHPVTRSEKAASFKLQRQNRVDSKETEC
In order to identify the cleavage site of ADAM10/ADAM17 within the stalk region of TREM2, in vitro cleavage patterns of stalk region-derived peptides were investigated and confirmed the cleavage site by determination of the C-terminus of shed soluble TREM2 from cell culture supernatants. A series of peptides covering the stalk region were designed for in vitro investigation of ADAM10/ADAM17 cleavage (FIG. 5A). All peptides were obtained with an N-terminal 7-methoxycoumarin (Mca) fluorescent tag. Peptides 1-3, 1a and 2a were incubated with ADAM17 in neutral buffer for up to 48 hours, and reaction was followed by HPLC analysis of aliquots withdrawn at different time points.
HPLC-MS analysis of the reaction mixture of peptide3/ADAM17 identified one major product, SISRSLLEGEIPFP-NH2(SEQ ID NO: 51), together with 2 minor cleavage products (FIGS. 5B-5C). […] At these time points there was essentially no substrate left. Therefore, it can be concluded that the minor cleavage products originate from secondary ADAM17 cleavage of the main product.
For the molecule “Peptide 2: TREM2 stalk region derived synthetic peptide with 7-methoxycoumarin (Mca) tag; SEQ ID NO: 26 (PLDHRDAGDLWFPGESESFE; also: 7-methoxycoumarin (Mca) tag, position not given here)”, the “Cleavage by ADAM17” value is listed as “only very little or no reduction of the parent peptide”.

“1a: TREM2 stalk region derived synthetic peptide with 7-methoxycoumarin (Mca) tag; SEQ ID NO: 28 (VLVEVLADPLDHRD; also: 7-methoxycoumarin (Mca) tag, position not given here) [Peptide 1a]”: the “Cleavage by ADAM17” value was “only very little or no reduction of the parent peptide”.

As for “Peptide 2a: TREM2 stalk region derived synthetic peptide with 7-methoxycoumarin (Mca) tag; SEQ ID NO: 29 (ESESFEDAHVEH; also: 7-methoxycoumarin (Mca) tag, position not given here)”, the “Cleavage by ADAM17” value is recorded as “only very little or no reduction of the parent peptide”.

Take “Peptide 1: TREM2 stalk region derived synthetic peptide with 7-methoxycoumarin (Mca) tag; SEQ ID NO: 25 (SLHGSEADTLRKVLVEVLAD; also: 7-methoxycoumarin (Mca) tag, position not given here)”: the “Cleavage by ADAM17” value was “only very little or no reduction of the parent peptide”.

(Values after patent publication US20200207830A1, “TREM2 MUTANTS RESISTANT TO SHEDDASE CLEAVAGE” (NOVARTIS AG, priority 2017, published 2020).)
